Measurements taken from patent US20170165338A1.

The binders below were run against HLA-A*24 (human) (assay: UV-exchange b2m ELISA).

Binder	peptide exchange yield [%]
HYPPVQVLF	50 to 75
NYYEVHKELF	50 to 75
VYQGHTALL	> 75
LYITEPKTI	50 to 75
PYRLIFEKF	20 to 49
